A value given as a limit tells only on which side of the number the result lay.

Six molecules from patent US20230036655A1 (OTSUKA PHARMACEUTICAL, published 2023) can be followed below.

Test [1] deals with T1, human GDF15 (hGDF15), mature, wild-type (human, UniProt Q99988 197-308).
T1 construct: Bought recombinant protein: R&D Systems 957-GD-025/CF in most assays, 9279-GD in the crystal and the GDF15/GFRAL/RET assay; It was biotinylated in the GFRAL assay; also called hGDF15 (WT); rhGDF15
T1 sequence: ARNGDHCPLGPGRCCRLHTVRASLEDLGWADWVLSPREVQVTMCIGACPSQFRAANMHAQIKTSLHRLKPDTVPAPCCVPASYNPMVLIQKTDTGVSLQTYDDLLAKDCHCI
Nature of the test: competition ELISA: GFRAL immobilised, biotinylated GDF15 plus serially diluted antibody; inhibition of GDF15-GFRAL complex formation. From the text:
First, the effect on GDF15 and GFRAL complex formation was examined (FIG. 12). GFRAL (R&D systems, 9697-GR) was immobilized on a plate, and GDF15 (R&D systems, 957-GD/CF) biotinylated with EZ-Link Micro NHS-PEG4-Bitinylation Kit (Thermo Fisher Scientific, 21955) and a serially diluted solution of an anti-GDF15 monoclonal antibody (Table 26) were reacted with the plate. Human IgG1, kappa-Isotype Control (Abcam) was used as a negative control antibody. GDF15 bound to GFRAL was detected using Pierce High Sensitivity Streptavidin-HRP (Thermo Fisher Scientific, 21130). TMB 1-Component Microwell Peroxidase Substrate, SureBlue (SeraCare Life Sciences) was used for color development, and the reaction was stopped by adding a stop solution (Wako). Absorbance was measured at 450 nm (OD450) using Emax (Molecular Devices). The % of control value was calculated according to Equation-1 from the OD450 value when each antibody was added, with the OD450 value when no antibody was added as a control. The IC50 value was obtained by calculating the inhibition rate from the % of control value thus obtained according to Equation-2 and using an Excel macro for IC50 calculation.

For test [2], the target named is T1, human GDF15 (hGDF15), mature, wild-type. Nature of the test: sandwich ELISA: antibody immobilised, WT or mutant hGDF15, goat polyclonal detection; N=3, mean ± SD (reference). In general terms: ELISA stands for enzyme-linked immunosorbent assay.
The target of test [3] is T2, mutant hGDF15 R13A (human, UniProt Q99988 197-308).
T2 construct: Expressed in ExpiCHO-S cells and used as culture supernatant in the ELISA
T2 chain: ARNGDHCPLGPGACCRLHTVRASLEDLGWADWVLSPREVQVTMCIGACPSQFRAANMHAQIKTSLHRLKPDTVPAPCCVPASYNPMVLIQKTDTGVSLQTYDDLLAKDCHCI
Put plainly: sandwich ELISA: antibody immobilised, WT or mutant hGDF15, goat polyclonal detection; N=3, mean ± SD.

In test [4] the target is T3, mutant hGDF15 8A (human, UniProt Q99988 197-308).
T3 construct: Expressed in ExpiCHO-S cells and used as culture supernatant
T3 chain: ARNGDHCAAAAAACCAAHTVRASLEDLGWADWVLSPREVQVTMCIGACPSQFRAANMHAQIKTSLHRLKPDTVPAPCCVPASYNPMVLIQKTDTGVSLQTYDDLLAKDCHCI
The test is described as above.

Test [5] addresses T4, mutant hGDF15 4A (human, UniProt Q99988 197-308).
T4 construct: Expressed in ExpiCHO-S cells and used as culture supernatant
T4 chain: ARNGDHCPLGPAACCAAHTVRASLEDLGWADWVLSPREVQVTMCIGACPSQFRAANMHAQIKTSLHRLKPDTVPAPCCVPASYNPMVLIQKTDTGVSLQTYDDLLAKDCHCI
Described as above.

Test [6] deals with T5, mutant hGDF15 R13A, R16A (human, UniProt Q99988 197-308).
T5 construct: Expressed in ExpiCHO-S cells and used as culture supernatant in the ELISA
T5 chain: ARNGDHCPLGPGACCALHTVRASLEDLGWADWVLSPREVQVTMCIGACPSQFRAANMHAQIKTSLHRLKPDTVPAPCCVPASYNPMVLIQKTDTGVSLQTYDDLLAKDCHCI
Described as above.

Test [7] addresses T6, mutant hGDF15 6A (human, UniProt Q99988 197-308).
T6 construct: Expressed in ExpiCHO-S cells and used as culture supernatant
T6 chain: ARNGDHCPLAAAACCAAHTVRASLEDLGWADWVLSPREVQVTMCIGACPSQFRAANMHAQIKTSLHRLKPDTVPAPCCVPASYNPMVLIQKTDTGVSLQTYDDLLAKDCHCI
The test is described as above.

The target of test [8] is T7, mutant hGDF15 H6A (human, UniProt Q99988 197-308).
T7 construct: Expressed in ExpiCHO-S cells and used as culture supernatant in the ELISA
T7 chain: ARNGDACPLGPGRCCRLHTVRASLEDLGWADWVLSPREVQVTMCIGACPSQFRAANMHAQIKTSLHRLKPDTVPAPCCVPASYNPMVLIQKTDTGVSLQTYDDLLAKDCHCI
The test is described as above.

The target in test [9] is T8, mutant hGDF15 3A (human, UniProt Q99988 197-308).
T8 construct: Expressed in ExpiCHO-S cells and used as culture supernatant
T8 chain: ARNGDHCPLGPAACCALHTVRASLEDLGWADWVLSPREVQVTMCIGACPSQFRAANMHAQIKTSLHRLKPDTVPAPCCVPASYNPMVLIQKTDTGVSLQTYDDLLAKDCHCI
The description is as above.

Test [10] concerns the target T9, mutant hGDF15 T72A (human, UniProt Q99988 197-308).
T9 construct: Expressed in ExpiCHO-S cells and used as culture supernatant in the ELISA
T9 chain: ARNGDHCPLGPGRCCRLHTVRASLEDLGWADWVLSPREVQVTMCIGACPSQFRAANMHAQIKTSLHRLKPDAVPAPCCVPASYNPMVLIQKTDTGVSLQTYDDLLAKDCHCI
Described as above.

Test [11] has as its target T10, mutant hGDF15 R16A (human, UniProt Q99988 197-308).
T10 construct: Expressed in ExpiCHO-S cells and used as culture supernatant in the ELISA
T10 chain: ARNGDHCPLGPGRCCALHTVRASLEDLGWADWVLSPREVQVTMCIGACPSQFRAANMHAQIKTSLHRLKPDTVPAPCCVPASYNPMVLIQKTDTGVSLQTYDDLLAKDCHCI
The test is described as above.

Test [12] addresses T1, human GDF15 (hGDF15), mature, wild-type. Nature of the test: competition ELISA: GFRAL immobilised, biotinylated GDF15 plus serially diluted antibody; inhibition of GDF15-GFRAL complex formation (negative control).
Test [13] shares this target. Put plainly: competition (sandwich) ELISA: clone immobilised, hGDF15 captured; competitor: biotinylated HuMAB2. How it is done: HuMAB2 and the anti-GDF15 monoclonal antibodies shown in Table 5 (2 μg/mL) were added to 96-well plates at 100 μL/well to be immobilized on the plates, and reacted with 100 μL/well of hGDF15 (R&D Systems, 957-GD-025/CF) serially diluted from a concentration of 1 ng/ml. HuMAB2 biotinylated using EZ-Link Micro NHS-PEG4-Bitinylation Kit (Thermo Fisher Scientific, 21955) was used as the detection antibody (1 μg/mL as 100 μL/well). Whether or not sandwich ELISA was established was determined using Streptavidin-HRP conjugate in Human GDF15 ELISA Kit (R&D Systems, DY957). The detection antibody in Human GDF15 ELISA Kit (R&D Systems, DY957) (Table 5), which can establish sandwich ELISA with any monoclonal antibody, was used as a positive control antibody (PC) for sandwich ELISA.
Then, other antibodies obtained this time were tested to see whether each of these antibodies competes with HuMAB2 by the same method as described above.

As a reminder, the IC50 is the point on the concentration scale where inhibition reaches its midpoint. Take MAB957 (antibody): the IC50 in test [1] turned out to be 11.1 nM. Besides, the relative binding (amount bound to 500 pg/mL hGDF15 = 100) (relative value (WT hGDF15 = 100)) in test [2] amounted to 100; in test [3], 89.9; in [4], 69.2; in test [5] it was 84.1; in [6] it was 80.6; in test [7], 74.3. Moreover, the relative binding (amount bound to 500 pg/mL hGDF15 = 100) (relative value (WT hGDF15 = 100)) in [8] is 88.3; in test [9], 99; in test [10] it was 101; in [11], 93.9.
As for Human IgG1 Isotype control (antibody), the IC50 in test [12] was more than 500 nM.

B1: MAB13 (antibody, V domains shown)
VH: EIQLQQTGPELVKPGASVKISCKASGYSFTDYIMLWVKQRHGKSLEWIGNIHPYYGTTSYNLKFKGKATLTVDKSSSTAYMQLNSLTSEDSAVYYCARGIGGSPFAYWGQGTLVTVSA
VL: DVLMTQTPLSLPVSLGDQASISCRSSQSIVHSNGNTYLEWYLQKPGQSPKLLIYKVSNRFSGVPDRFTGTGSGTDFTLKISRVEAEDLGVYYCFQGSHVPYTFGGGTKLEIK
notes: Mouse monoclonal antibody from hybridoma; also called clone MAB13
In test [13], B1 registered an Inhibition % of 79%.

B2: Hu01G06-127 (antibody, V domains shown)
VH: QVQLVQSGAEVKKPGASVKVSCKASGYTFTDYNMDWVRQAPGQSLEWMGQINPNNGLIFFNQKFQGRVTLTTDTSTSTAYMELRSLRSDDTAVYYCAREAITTVGAMDYWGQGTLVTVSS
VL: DIQMTQSPSSLSASVGDRVTITCRTSENLHNYLAWYQQKPGKSPKLLIYDAKTLADGVPSRFSGSGSGTDYTLTISSLQPEDFATYYCQHFWSDPYTFGQGTKLEIKR
Turning to B2, the IC50 in test [1] was 0.05 nM. Further, the “relative binding (amount bound to 500 pg/mL hGDF15 = 100)” value in test [3] is 91.4 relative value (WT hGDF15 = 100); in test [4], 57.1 relative value (WT hGDF15 = 100); in test [5] it was 83.5 relative value (WT hGDF15 = 100); in test [6], 87.6 relative value (WT hGDF15 = 100); in test [7] it was 61.6 relative value (WT hGDF15 = 100); in test [8], 90.5 relative value (WT hGDF15 = 100). Also, the “relative binding (amount bound to 500 pg/mL hGDF15 = 100)” value in test [9] was 96.2 relative value (WT hGDF15 = 100); in [10] it was 108 relative value (WT hGDF15 = 100); in [11], 102 relative value (WT hGDF15 = 100).

B3: MAB17 (antibody, V domains shown)
VH: QVTLKESGPGILQPSQTLSLTCSFSGFSLNTHGMGVGWIRQPSGKGLEWLANIWWNDDKYYNSALKSRLTLSKDTSNNQVFLKISSVDTADTATYFCAQVAWDWFAYWGQGTLVTIS
VL: QIVLTQSPAIMSASLGEEITLTCSASSSVRYMHWYQQKSGTSPKVLIYSTSNLASGVPSRFSGSGSGTFYSLTISSVEAEDAADYYCHQWSSYPWTFGGGTKLEIKR
notes: Mouse monoclonal antibody from hybridoma; also called clone MAB17
Molecule B3 came in with an Inhibition % in test [13] of 0%. Besides, the IC50 in test [1] is 12 nM. Also, the “relative binding (amount bound to 500 pg/mL hGDF15 = 100)” value was 97.2 relative value (WT hGDF15 = 100) in test [3]; 78.8 relative value (WT hGDF15 = 100) in test [4]; 95 relative value (WT hGDF15 = 100) in [5]; 83 relative value (WT hGDF15 = 100) in test [6]; 83.9 relative value (WT hGDF15 = 100) in test [7]; 87.7 relative value (WT hGDF15 = 100) in test [8]. Besides, the “relative binding (amount bound to 500 pg/mL hGDF15 = 100)” value in test [9] is 110 relative value (WT hGDF15 = 100); in [10], 104 relative value (WT hGDF15 = 100); in test [11], 101 relative value (WT hGDF15 = 100).

B4: MAB1 (antibody, V domains shown)
VH: EVQLQQSGPELEKPGASVKISCKASGYSFTGYNMNWVKQSNGKSLEWIGNIDPYYGGTSYNQKFKGKATLTVDKSSSTAYMQLKSLTSEDSAVYYCARPGRYDGAWFAYWGQGTLVTVSA
VL: QIVLSQSPAILSASPGEKVTMTCRASSNVNYMHWYQQKPGSSPKPWIYATSNLASGVPARFSGSGSGTSYSLTISRVEAEDAATYYCQQWSDNPLTFGAGTKLELK
notes: Mouse monoclonal antibody from hybridoma; also called clone MAB1
B4: the Inhibition % in test [13] is 82%.
